Experimental data from PMC6472344, “Self-organization of Plk4 regulates symmetry breaking in centriole duplication” (Nature Communications, 2019).

Key:
[1] = biological target: the molecule itself; assay: co-sedimentation; spin-down assay: 500 nM GST-Plk4(Kinase + L1)-His6 incubated at 30 °C for 1 h in kinase buffer (20 mM Tris pH 7.5, 300 or 500 mM NaCl, 30 μM ATP, 5 mM MgCl2, 1 mM β-mercaptoethanol), GST cut off with PreScission protease at 4 °C overnight, centrifuged at 21,500 x g for 10 min; supernatant and pellet by SDS-PAGE and CBB staining
[2] = biological target: the molecule itself; assay: Proteostat aggregation assay (dye fluorescence); 300 nM GST-Plk4 (Kinase + L1)-His6 in 20 mM Tris pH 7.5, 300 mM NaCl, 1 mM β-mercaptoethanol, 0.1 mM MnCl2, 37 °C for 1 h with or without lambda phosphatase; fluorescence normalised to the WT

B1: Plk4 (Kinase + L1)-His6, kinase-dead (D154A), after GST-tag cleavage (domain or fragment, human, UniProt O00444 1-585, looked up)
chain: MATCIGEKIEDFKVGNLLGKGSFAGVYRAESIHTGLEVAIKMIDKKAMYKAGMVQRVQNEVKIHCQLKHPSILELYNYFEDSNYVYLVLEMCHNGEMNRYLKNRVKPFSENEARHFMHQIITGMLYLHSHGILHRDLTLSNLLLTRNMNIKIAAFGLATQLKMPHEKHYTLCGTPNYISPEIATRSAHGLESDVWSLGCMFYTLLIGRPPFDTDTVKNTLNKVVLADYEMPSFLSIEAKDLIHQLLRRNPADRLSLSSVLDHPFMSRNSSTKSKDLGTVEDSIDSGHATISTAITASSSTSISGSLFDKRRLLIGQPLPNKMTVFPKNKSSTDFSSSGDGNSFYTQWGNQETSNSGRGRVIQDAEERPHSRYLRRAYSSDRSGTSNSQSQAKTYTMERCHSAEMLSVSKRSGGGENEERYSPTDNNANIFNFFKEKTSSSSGSFERPDNNQALSNHLCPGKTPFPFADPTPQTETVQQWFGNLQINAHLRKTTEYDSISPNRDFQGHPDLQKDTSKNAWTDTKVKKNSDASDNAHSVKQQNTMKYMTALHSKPEIIQQECVFGSDPLSEQSKTRGMEPPWGYQNR
notes: human Polo-like kinase 4 (Plk4), kinase domain and Linker 1, residues 1-585, kinase-dead; also called KD mutant; KD; source: E. coli BL21 gold (DE3), purified (glutathione sepharose, Ni-agarose); GST cut off with PreScission protease; not shown: GST, N-terminal, cleaved; His6, C-terminal, kept
- binding result [1]: binds

B2: GST-Plk4 (Kinase + L1)-His6, kinase-dead (D154A) (domain or fragment, human, UniProt O00444 1-585, looked up)
chain: MATCIGEKIEDFKVGNLLGKGSFAGVYRAESIHTGLEVAIKMIDKKAMYKAGMVQRVQNEVKIHCQLKHPSILELYNYFEDSNYVYLVLEMCHNGEMNRYLKNRVKPFSENEARHFMHQIITGMLYLHSHGILHRDLTLSNLLLTRNMNIKIAAFGLATQLKMPHEKHYTLCGTPNYISPEIATRSAHGLESDVWSLGCMFYTLLIGRPPFDTDTVKNTLNKVVLADYEMPSFLSIEAKDLIHQLLRRNPADRLSLSSVLDHPFMSRNSSTKSKDLGTVEDSIDSGHATISTAITASSSTSISGSLFDKRRLLIGQPLPNKMTVFPKNKSSTDFSSSGDGNSFYTQWGNQETSNSGRGRVIQDAEERPHSRYLRRAYSSDRSGTSNSQSQAKTYTMERCHSAEMLSVSKRSGGGENEERYSPTDNNANIFNFFKEKTSSSSGSFERPDNNQALSNHLCPGKTPFPFADPTPQTETVQQWFGNLQINAHLRKTTEYDSISPNRDFQGHPDLQKDTSKNAWTDTKVKKNSDASDNAHSVKQQNTMKYMTALHSKPEIIQQECVFGSDPLSEQSKTRGMEPPWGYQNR
notes: human Polo-like kinase 4 (Plk4), kinase domain and Linker 1, residues 1-585, kinase-dead; also called KD; source: E. coli BL21 gold (DE3), purified (glutathione sepharose, eluted with glutathione; Ni-agarose); not shown: GST, N-terminal, kept; His6, C-terminal, kept
- binding result [2]: binds

B3: GST-Plk4 (Kinase + L1)-His6, wild type, dephosphorylated with lambda phosphatase (domain or fragment, human, UniProt O00444 1-585, looked up)
chain: MATCIGEKIEDFKVGNLLGKGSFAGVYRAESIHTGLEVAIKMIDKKAMYKAGMVQRVQNEVKIHCQLKHPSILELYNYFEDSNYVYLVLEMCHNGEMNRYLKNRVKPFSENEARHFMHQIITGMLYLHSHGILHRDLTLSNLLLTRNMNIKIADFGLATQLKMPHEKHYTLCGTPNYISPEIATRSAHGLESDVWSLGCMFYTLLIGRPPFDTDTVKNTLNKVVLADYEMPSFLSIEAKDLIHQLLRRNPADRLSLSSVLDHPFMSRNSSTKSKDLGTVEDSIDSGHATISTAITASSSTSISGSLFDKRRLLIGQPLPNKMTVFPKNKSSTDFSSSGDGNSFYTQWGNQETSNSGRGRVIQDAEERPHSRYLRRAYSSDRSGTSNSQSQAKTYTMERCHSAEMLSVSKRSGGGENEERYSPTDNNANIFNFFKEKTSSSSGSFERPDNNQALSNHLCPGKTPFPFADPTPQTETVQQWFGNLQINAHLRKTTEYDSISPNRDFQGHPDLQKDTSKNAWTDTKVKKNSDASDNAHSVKQQNTMKYMTALHSKPEIIQQECVFGSDPLSEQSKTRGMEPPWGYQNR
notes: human Polo-like kinase 4 (Plk4), kinase domain and Linker 1, residues 1-585; The same construct as m5 after removal of its autophosphorylation by λPP; also called λPP-treated WT Plk4 fragments; source: E. coli BL21 gold (DE3), purified (glutathione sepharose, eluted with glutathione; Ni-agarose); incubated with lambda phosphatase; not shown: GST, N-terminal, kept; His6, C-terminal, kept
- binding result [2]: binds
